Holding throughout (experiment): filter
Series [1] addresses ΔNS3 protein (NS3 protease domain) (Hepatitis C virus) (UniProt P26662). As to conditions: 100 nM protein; 4.9 at 50 nM; 0.1 without protein; Tris pH 7.8, Mg2+, Ca2+.
Series [2] addresses bovine serum albumin (BSA) (Bos taurus) (UniProt P02769). To be noted: 100 nM BSA.
Series [3] deals with T1, myeloperoxidase (MPO) (Homo sapiens) (UniProt P05164).
T1 sequence: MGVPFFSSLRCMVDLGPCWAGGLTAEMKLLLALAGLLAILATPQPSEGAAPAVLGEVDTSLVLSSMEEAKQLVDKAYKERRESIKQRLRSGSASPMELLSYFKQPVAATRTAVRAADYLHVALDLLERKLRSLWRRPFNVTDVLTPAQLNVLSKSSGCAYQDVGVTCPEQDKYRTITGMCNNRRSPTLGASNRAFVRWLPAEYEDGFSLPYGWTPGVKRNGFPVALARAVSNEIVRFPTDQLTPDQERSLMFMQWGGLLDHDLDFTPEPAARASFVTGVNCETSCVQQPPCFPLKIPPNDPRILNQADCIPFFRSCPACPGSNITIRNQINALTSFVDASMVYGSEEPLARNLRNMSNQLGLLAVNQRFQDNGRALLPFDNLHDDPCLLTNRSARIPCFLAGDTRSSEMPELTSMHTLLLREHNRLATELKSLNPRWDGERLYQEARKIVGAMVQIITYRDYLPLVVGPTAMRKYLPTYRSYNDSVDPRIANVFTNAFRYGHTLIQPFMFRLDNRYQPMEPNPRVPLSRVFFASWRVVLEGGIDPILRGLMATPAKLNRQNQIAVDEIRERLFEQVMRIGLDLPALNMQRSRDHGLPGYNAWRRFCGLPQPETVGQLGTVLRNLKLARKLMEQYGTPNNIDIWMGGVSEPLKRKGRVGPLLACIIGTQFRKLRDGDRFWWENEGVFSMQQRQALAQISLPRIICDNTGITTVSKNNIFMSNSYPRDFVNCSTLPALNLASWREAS
As to conditions: 100 nM MPO; 2.66 at 50 nM; 1.49 without protein.

Sequence of bovine serum albumin (BSA) (Bos taurus) (P02769 25-607): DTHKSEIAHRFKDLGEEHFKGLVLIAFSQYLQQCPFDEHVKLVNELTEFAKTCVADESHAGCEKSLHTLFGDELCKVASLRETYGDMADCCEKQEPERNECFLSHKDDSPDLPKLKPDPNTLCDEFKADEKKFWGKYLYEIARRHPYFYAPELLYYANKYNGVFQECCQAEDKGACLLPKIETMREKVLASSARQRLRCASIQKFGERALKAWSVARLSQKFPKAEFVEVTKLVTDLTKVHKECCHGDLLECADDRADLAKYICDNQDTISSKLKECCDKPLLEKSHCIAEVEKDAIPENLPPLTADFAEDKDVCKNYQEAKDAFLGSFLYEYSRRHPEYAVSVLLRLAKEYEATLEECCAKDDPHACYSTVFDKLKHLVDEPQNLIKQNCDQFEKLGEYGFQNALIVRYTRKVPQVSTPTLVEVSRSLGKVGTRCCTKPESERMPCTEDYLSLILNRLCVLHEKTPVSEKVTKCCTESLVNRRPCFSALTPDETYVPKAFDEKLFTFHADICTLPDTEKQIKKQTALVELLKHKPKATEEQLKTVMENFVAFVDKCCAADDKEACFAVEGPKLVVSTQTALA

Consider “GGGAGGUGGAACUGAAGGAGANNNNNNNNNNNNNNNNNNNNNNNNNNNNNNNNNNNNNNNNNNNNNNNNNNNNNNNACUUCGCAAUCGCUCUACGCA [RNA pool (generation zero)]”, for which the binding signal in series [1] came to 8.1 % bound. With “GGUAGAUACGAUGGANNNNNNNNNNNNNNNNNNNNNNNNNNNNNNCAUGACGCGCAGCCA [RNA pool 2]”, the binding signal stood at 1.86 % bound in series [2] and 1.7 % bound in series [3].

The values are drawn from patent US20100129870.
